These results are taken from patent publication US20090092617A1 (K BENHAVNS UNIVERSITET, published 2009).

Experiment [1] concerns the target T1, Human ErbB4 extracellular part fused to Fc of human IgG1 (human, UniProt Q15303 26-651).
T1 construct: extracellular domain; also called ErbB4-Fc chimeric protein; not shown: Fc region of human IgG1
T1 sequence (looked up): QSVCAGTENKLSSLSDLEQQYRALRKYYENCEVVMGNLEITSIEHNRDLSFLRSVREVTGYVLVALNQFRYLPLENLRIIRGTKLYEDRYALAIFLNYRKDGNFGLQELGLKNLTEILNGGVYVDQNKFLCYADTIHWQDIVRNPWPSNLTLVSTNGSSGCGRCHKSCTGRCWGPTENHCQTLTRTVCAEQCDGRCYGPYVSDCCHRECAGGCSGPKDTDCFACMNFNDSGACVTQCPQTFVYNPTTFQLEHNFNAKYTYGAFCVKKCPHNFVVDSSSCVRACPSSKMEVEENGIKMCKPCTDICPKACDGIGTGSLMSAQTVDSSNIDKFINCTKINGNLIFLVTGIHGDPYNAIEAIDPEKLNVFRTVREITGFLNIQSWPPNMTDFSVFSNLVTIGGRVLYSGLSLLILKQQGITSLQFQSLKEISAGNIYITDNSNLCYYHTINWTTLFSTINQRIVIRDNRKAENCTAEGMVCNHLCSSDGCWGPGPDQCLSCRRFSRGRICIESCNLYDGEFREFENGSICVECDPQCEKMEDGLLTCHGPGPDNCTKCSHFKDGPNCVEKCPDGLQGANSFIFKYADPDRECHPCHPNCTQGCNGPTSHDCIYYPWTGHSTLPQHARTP
In words: SPR (BIAcore 2000), peptide immobilized on CM5 chip, receptor protein injected. The protocol:
(§1) Binding analyses were performed with the surface plasmon resonance (SPR)-based biosensor instrument BIAcore2000 (BIAcore AB, Uppsala, Sweden), at 25° C. using ready-made HBS-EP buffer (BIAcore AB) as running buffer. Peptides were immobilized on the surface of a CM5 sensor chip (BIAcore AB) using an amine coupling kit (Biosensor AB, Uppsala, Sweden) according to the manufacturer's instructions, at a flow rate of 5 μl/min. Briefly, carboxyl groups on the sensor chip surface were activated by injection of 35 μl activation solution followed by injection of peptide (50 μg/ml peptide in HBS-EP buffer, pH 7.4) until the desired level of immobilized peptide was reached. Unreacted peptide was washed out and unreacted activated groups were blocked by the injection of 35 μl 1 M ethanolamine. The final immobilization response was app. 7000-9000 resonance units (RU). A reference surface was generated simultaneously under the same conditions but without peptide injection and used as a blank chip control. ErbB receptor proteins were injected at various concentrations at a flow rate of 20 μl/min, and binding to the peptides immobilized on the chip was measured in real-time. The curve corresponding to the difference between signals on flow cells with immobilized peptide and the signal on the blank flow cell was used for analysis. Each sensorgram consists of an association phase (the first 320 seconds), reflecting binding of the injected receptor to the peptide, and a dissociation phase (app. 300 seconds), during which running buffer is passed over the chip and the bound receptor is being washed off. Data were analyzed by nonlinear curve fitting using the manufacturer' software. The recombinant protein comprising the whole extracellular part of human ErbB1 (also termed the EGF receptor, EGFR) was purchased from Research Diagnostics (Concord, Mass., USA). Recombinant proteins comprising the Fc region of human IgG₁ and the Fc protein fused to the extracellular parts of human ErbB2, ErbB3 or ErbB4 were purchased from R&D Systems Europe (Abingdon, UK).
(§2) The binding of three Inherbin peptides to all four members of the ErbB receptor family was determined using surface plasmon resonance (SPR) binding analysis (table 1).
On the technique in general: In SPR one partner is held on a chip, and binding of the other changes the refractive index at the surface.

Experiment [2] addresses T2, Human ErbB2 extracellular part fused to Fc of human IgG1 (human, UniProt P04626 23-652).
T2 construct: extracellular domain; also called ErbB2-Fc chimeric protein; not shown: Fc region of human IgG1
The description is as above. The protocol: as §1, §2

The target of experiment [3] is T3, Recombinant protein comprising the whole extracellular part of human ErbB1 (human, UniProt P00533 25-645).
T3 construct: extracellular domain; also called EGF receptor; EGFR
Put plainly: SPR (BIAcore 2000), peptide dendrimer immobilized, receptor ECD injected; mean ± SEM. The protocol: (§3) Binding analyses were performed with the surface plasmon resonance (SPR)-based biosensor instrument BIAcore2000 (BIAcore AB, Uppsala, Sweden), at 25° C. using ready-made HBS-EP buffer (BIAcore AB) as running buffer. Peptides were immobilized on the surface of a CM5 sensor chip (BIAcore AB) using an amine coupling kit (Biosensor AB, Uppsala, Sweden) according to the manufacturer's instructions, at a flow rate of 5 μl/min. Briefly, carboxyl groups on the sensor chip surface were activated by injection of 35 μl activation solution followed by injection of peptide (50 μg/ml peptide in HBS-EP buffer, pH 7.4) until the desired level of immobilized peptide was reached. Unreacted peptide was washed out and unreacted activated groups were blocked by the injection of 35 μl 1 M ethanolamine. The final immobilization response was app. 7000-9000 resonance units (RU). […] ErbB receptor proteins were injected at various concentrations at a flow rate of 20 μl/min, and binding to the peptides immobilized on the chip was measured in real-time. […] Data were analyzed by nonlinear curve fitting using the manufacturer' software. […]
as §2

Experiment [4] concerns the target T4, Human ErbB3 extracellular part fused to Fc of human IgG1 (human, UniProt P21860 20-643).
T4 construct: extracellular domain; also called ErbB3-Fc chimeric protein; not shown: Fc region of human IgG1
Put plainly: SPR (BIAcore 2000), peptide dendrimer immobilized, receptor ECD-Fc injected; mean ± SEM. The protocol: as §1, §2

The target of experiment [5] is T1, Human ErbB4 extracellular part fused to …. The description is as above. As to the method: as §1, §2
Experiment [6] concerns the target T2, Human ErbB2 extracellular part fused to …. Described as above. As to the method:
as §1, §2

Experiment [7] has as its target T4, Human ErbB3 extracellular part fused to …. Put plainly: SPR (BIAcore 2000), peptide dendrimer immobilized, receptor ECD-Fc injected; mean ± SEM, SEM 8e-9 in r11c2. As to the method: as §3, §2
For experiment [8], the target named is T3, Recombinant protein comprising the …. Put plainly: SPR (BIAcore 2000), peptide dendrimer immobilized, receptor ECD injected; mean ± SEM, SEM 4.9e-9 in r8c2. The protocol: as §3, §2

By Kd is commonly meant the equilibrium constant for the complex coming apart.

Where no end group is shown, it is not given here.

T4 sequence (P21860 20-643): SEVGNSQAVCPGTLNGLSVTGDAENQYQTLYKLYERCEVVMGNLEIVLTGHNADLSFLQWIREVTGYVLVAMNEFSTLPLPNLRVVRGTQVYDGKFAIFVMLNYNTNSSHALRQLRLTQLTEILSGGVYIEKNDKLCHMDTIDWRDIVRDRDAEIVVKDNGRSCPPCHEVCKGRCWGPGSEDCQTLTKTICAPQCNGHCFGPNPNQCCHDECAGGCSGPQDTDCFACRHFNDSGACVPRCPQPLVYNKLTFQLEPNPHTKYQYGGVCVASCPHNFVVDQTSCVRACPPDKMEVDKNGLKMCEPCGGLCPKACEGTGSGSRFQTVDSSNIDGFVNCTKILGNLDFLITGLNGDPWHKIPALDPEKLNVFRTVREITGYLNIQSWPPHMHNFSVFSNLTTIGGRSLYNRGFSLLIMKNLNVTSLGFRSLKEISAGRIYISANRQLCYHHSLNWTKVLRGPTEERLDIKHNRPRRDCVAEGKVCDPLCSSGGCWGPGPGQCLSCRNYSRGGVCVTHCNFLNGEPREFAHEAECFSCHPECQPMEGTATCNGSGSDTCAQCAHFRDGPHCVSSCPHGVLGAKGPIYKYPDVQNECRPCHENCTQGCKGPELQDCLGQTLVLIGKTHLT

B1: Inherbin3d, tetrameric dendrimer of the Inherbin3 peptide (peptide)
peptide: LVYNKLTFQLEPNPHTK
modifications: also: tetrameric dendrimer: four monomers coupled to a lysine backbone
notes: also called 3DL
As to B1, the binding result in experiment [1] and in experiment [2] was “no binding (tested: 32 µM (concentration given for FIG. 1))” throughout. The Kd in experiment [3] is 0.07 µM; in experiment [4], 0.0179 µM.

B2: Inherbin4 peptide, tetrameric dendrimer (peptide)
peptide: FVYNPTTFQLEMNFNAK
modifications: also: tetrameric dendrimer: four monomers coupled to a lysine backbone
notes: also called 4DL
As for B2, the Kd worked out at 0.297 µM in experiment [3], 0.0199 µM in experiment [4], 0.0904 µM in experiment [5] and 0.043 µM in experiment [6].

B3: Inherbin1 peptide, tetrameric dendrimer (peptide)
peptide: MLYNPTTYQMDVNPEGK
modifications: also: tetrameric dendrimer: four monomers coupled to a lysine backbone
notes: It was immobilized on a CM5 chip by amine coupling; also called 1DL
As for B3, the binding result in experiment [1] and in experiment [2] was “no binding” each time. In addition, the Kd amounted to 0.049 µM in experiment [7] and 0.0136 µM in experiment [8].
